One assay addresses T1, mFcγRI.
T1 construct: Named singly only on the sheet; the text speaks of mFcγRs as a group; also called mouse Fcγ receptor I; one of the mFcγRs
T1 chain: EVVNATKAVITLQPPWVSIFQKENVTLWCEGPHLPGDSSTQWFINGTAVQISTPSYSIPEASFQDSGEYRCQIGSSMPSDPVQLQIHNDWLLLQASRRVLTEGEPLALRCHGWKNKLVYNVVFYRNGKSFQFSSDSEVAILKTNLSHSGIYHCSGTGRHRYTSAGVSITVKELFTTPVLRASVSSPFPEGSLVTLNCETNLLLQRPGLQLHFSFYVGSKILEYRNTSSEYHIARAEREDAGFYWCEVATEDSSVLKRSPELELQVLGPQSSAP
Nature of the assay: SPR (Biacore T200), antibody captured on the chip, serially diluted mFcγRI as analyte; concentrations not given. (In SPR one partner is held on a chip, and binding of the other changes the refractive index at the surface.)

The target of assay [1] is T2, hCD47 protein (SPR analyte of Example 2) (human, UniProt Q08722 19-139, limits assumed). Nature of the assay: SPR, antibody captured by anti-human Fc antibodies on CM5 chip, hGPC3 injected first, then hCD47.
For assay [2], the target named is T3, hGPC3-ΔHS (human, UniProt P51654 25-559, limits assumed).
T3 construct: also called hGPC3-ΔHS protein
Description: SPR (Biacore T200), IgG1 captured on protein A/G CM5 chip, antigen printed as human GPC3 (hGPC3-ΔHS by paragraph 180) as analyte.
Description: (§1) All SPR analyses were performed on a Biacore T200 instrument (Biacore, GE Healthcare). […] The association rates (Kₒₙ), dissociation rates (Koff), and affinity constants (KD) were calculated using BiacoreT200 evaluation software.

The target in assay [3] is T4, extracellular domain of human CD47 (CD47-ECD), residues 1-118, with His6 tag and Avi tag (human, UniProt Q08722 19-136, biotin modification at the C-terminus (Avi tag, BirA) in the form called CD47-Bio).
T4 construct: also called CD47-ECD-His6; CD47-Bio; not shown: His6 tag and Avi tag from the vector
Description: SPR (Biacore T200), IgG1 captured on CM5 chip, CD47 as analyte [Con't].

Assay [4] has as its target T4, extracellular domain of human CD47 …. Nature of the assay: CD47 binding ELISA, bio-CD47 captured on neutravidin, full-length IgG1. Background: In an ELISA, binding on a coated surface is turned into a signal by an enzyme label.
Description: (§2) CD47 binding ELISA: 2 μg/mL of neutravidin (Sigma) in phosphate buffered saline (PBS) was coated in U-bottom 96-well plate (Nunc, MaxiSorp™), 100 μL per well, at 4° C. overnight or 37° C. for 1 hour. 2 μg/mL of bio-CD47 in PBS containing 2% nonfat milk were then captured onto the plates at 100 μL per well by incubation at 30° C. for 1 hour. […] In between each incubation step, the ELISA plate was washed for 6 times with PBST solution (0.05% Tween20 containing PBS) at 200 μL per well. Followed by HRP-conjugated antibody incubation, the ELISA signal was developed by incubating with TMB substrate (Sigma) for 5-10 mins at 30° C. and then stop the reaction with 2M H₂SO₄ at 50 μL per well. The absorbance at 450 nm was read by a microplate reader (Bio-Rad). For scFv-Fc or IgG1 based ELISA, the method was basically the same as described above for phage-scFvs except the bound antibodies were detected by HRP-conjugated mouse anti-human IgG Fc antibody (Sigma).
(§3) In FIG. 3, A. Antibodies in the form of full-length IgG1 were 3-fold serial diluted (starting at 10 nM, 12 concentrations total). B. Antibodies in the form of full-length IgG1 were 3-fold serial diluted (starting at 40 nM, 12 concentrations total).
The target is the same in assay [5]. Described as above. This is another data set of the same source.
Description: as §2, §3
The target in assay [6] is T2, hCD47 protein (SPR analyte of Example 2). Description: SPR (Biacore T200), IgG1 captured on protein A/G CM5 chip, human CD47 as analyte.
Description: as §1
The target in assay [7] is T4, extracellular domain of human CD47 …. Nature of the assay: SIRPα competition ELISA, CD47-ECD-His6 coated, competitor 0.8 nM biotinylated SIRPα-d1-mFc.
Description: (§4) The wash, development and read steps are the same as hCD47 binding ELISA. The OD450 values were transformed to Inhibition % in data analysis.
(§5) B. Antibodies in the form of full-length IgG1 were 3-fold serial diluted (starting at 40 nM, 12 concentrations total).
The target is the same in assay [8]. Description: SIRPα competition ELISA, CD47-ECD-His6 coated, competitor 0.5 nM biotinylated SIRPα-d1-mFc.
Description: as §4, §5
The target of assay [9] is T3, hGPC3-ΔHS. Nature of the assay: SPR, antibody captured by anti-human Fc antibodies on CM5 chip, hGPC3 injected first, then hCD47.
Assay [10] addresses T4, extracellular domain of human CD47 …. Description: SPR (Biacore T200), IgG1 captured on CM5 chip, CD47 as analyte; the column head prints KD (nM), but the cell equals kd/ka in M [Con't].
Description: (§6) 1 μg/mL of anti-CD47 full length IgG1 antibodies were captured onto a CM5 chip for 30 s at 10 μl/min. CD47 in 2-fold serial dilutions (starting at 100 nmol, seven concentrations total) were injected over the antibody-bound surface for 120 s at 30 μl/min followed by a 240 s dissociation phase. After each cycle, the surface was regenerated with magnesium chloride.
The target is the same in assay [11]. Description: SPR (Biacore T200), IgG1 captured on CM5 chip, CD47 as analyte; the column head also prints x 10^6, not applied because kd/ka of the cells gives the KD cell in M [Con't].
Description: as §6
The target is the same in assay [12]. Description: SPR (Biacore T200), IgG1 captured on CM5 chip, CD47 as analyte; the column head also prints x 10^-3, not applied because kd/ka of the cells gives the KD cell in M [Con't].
Description: as §6

Read-outs that look alike come from different tables or passages of the source.

B1: GPC3/CD47-DANG (bispecific antibody)
heavy 1: QVQLVQSGAEVKKPGASVKVSCKASGYTFTDYEMHWVRQAPGQGLEWMGALDPKTGDTAYSQKFKGRVTLTADESTSTAYMELSSLRSEDTAVYYCTRFYSYTYWGQGTLVTVSSASTKGPSVFPLAPSSKSTSGGTAALGCLVKDYFPEPVTVSWNSGALTSGVHTFPAVLQSSGLYSLSSVVTVPSSSLGTQTYICNVNHKPSNTKVDKKAEPKSCDKTHTCPPCPAPELLGGPSVFLFPPKPKDTLMISRTPEVTCVVVAVSHEDPEVKFNWYVDGVEVHNAKTKPREEQYGSTYRVVSVLTVLHQDWLNGKEYKCKVSNKALPAPIEKTISKAKGQPREPQVYTLPPCRDELTKNQVSLWCLVKGFYPSDIAVEWESNGQPENNYKTTPPVLDSDGSFFLYSKLTVDKSRWQQGNVFSCSVMHEALHNHYTQKSLSLSPGK
light 1: DVVMTQSPLSLPVTPGEPASISCRSSQSLVHSNANTYLHWYLQKPGQSPQLLIYKVSNRFSGVPDRFSGSGSGTDFTLKISRVEAEDVGVYYCSQNTHVPPTFGQGTKLEIKRTVAAPSVFIFPPSDEQLKSGTASVVCLLNNFYPREAKVQWKVDNALQSGNSQESVTEQDSKDSTYSLSSTLTLSKADYEKHKVYACEVTHQGLSSPVTKSFNRGEC
heavy 2: QVQLQESGPGLVKPSETLSLTCTVSGDSINYHYWSWIRQPPGKGLEWIGYIYYSGSTTYNPSLKSRVTMSVDPSKNHFSLKLTSVTAADTALYFCARQRGAYDYWGQGTLVTVSSASVAAPSVFIFPPSDEQLKSGTASVVCLLNNFYPREAKVQWKVDNALQSGNSQESVTEQDSKDSTYSLSSTLTLSKADYEKHKVYACEVTHQGLSSPVTKSFNRGECDKTHTCPPCPAPELLGGPSVFLFPPKPKDTLMISRTPEVTCVVVAVSHEDPEVKFNWYVDGVEVHNAKTKPREEQYGSTYRVVSVLTVLHQDWLNGKEYKCKVSNKALPAPIEKTISKAKGQPREPQVCTLPPSRDELTKNQVSLSCAVKGFYPSDIAVEWESNGQPENNYKTTPPVLDSDGSFFLVSKLTVDKSRWQQGNVFSCSVMHEALHNHYTQKSLSLSPGK
light 2: DIQLTQSPSSVSASVGDRVTIACRASQDIGSRLVWYQQRPGKAPKLLIYAASSLQSGVPSRFSGSGSGTDFTLTISSLQPEDFATYYCQQSYSTPYSFGQGTKLEIKSSASTKGPSVFPLAPSSKSTSGGTAALGCLVKDYFPEPVTVSWNSGALTSGVHTFPAVLQSSGLYSLSSVVTVPSSSLGTQTYICNVNHKPSNTKVDKKAEPKSC
notes: also called GPC3/CD47 biAb Fc variant; GPC3/CD47-DANG variant
Regarding B1, in the assay with mFcγRI, the binding result is recorded as “no binding”.

B2: GC33 (Codrituzumab), human IgG1 (antibody, V domains shown)
VH: QVQLVQSGAEVKKPGASVKVSCKASGYTFTDYEMHWVRQAPGQGLEWMGALDPKTGDTAYSQKFKGRVTLTADESTSTAYMELSSLRSEDTAVYYCTRFYSYTYWGQGTLVTVSS
VL: DVVMTQSPLSLPVTPGEPASISCRSSQSLVHSNANTYLHWYLQKPGQSPQLLIYKVSNRFSGVPDRFSGSGSGTDFTLKISRVEAEDVGVYYCSQNTHVPPTFGQGTKLEIK
notes: also called anti-GPC3 mAb
In the case of B2, in assay [1], the binding result is reported as “no binding”. In addition, in the assay with hGPC3-ΔHS [2], the Kd was found to be 1.29 nM, the koff was found to be 0.000275 s⁻¹ and the kon stood at 213000 M⁻¹ s⁻¹.

B3: BC18 full-length human IgG1 (antibody, V domains shown)
VH: QVQLQQSGPGLVKPSETLSLTCTVSGDSINYHYWSWIRQPPGKGLEWIGYIYYSGSTTYNPSLKSRVTMSVDPSKNHFSLKLTSVTAADTALYFCARQRGAYDYWGQGTQVTVSS
VL: DIQLTQSPSSVSASVGDRVTIACRASQDIGSRLVWYQQRPGKAPKLLIYAASSLQSGVPSRFSGSGSGTDFTLTISSLQPEDFATYYCQQSYSTPYSFGQGTKLEIK
notes: also called anti-CD47 mAb; parental anti-CD47 mAb
Turning to B3, the Kd in [3] is 1.62 nM; in [6], 1.11 nM; in [10], 2.22 nM. Besides, the koff came out at 0.00117 s⁻¹ in assay [3], 0.000753 s⁻¹ in assay [6] and 0.00123 s⁻¹ in assay [12]. Also, the figures for the kon in [3], in assay [6] and in [11] were 721000 M⁻¹ s⁻¹, 679000 M⁻¹ s⁻¹ and 557000 M⁻¹ s⁻¹, respectively. Moreover, the “EC50 (read off the curve)” value in [4] and in assay [5] was about 0.01 nM in each case. For the same molecule, the “IC50 (read off the curve)” value in [7] and in assay [8] was about 3 nM in each case. Moreover, in the assay with hGPC3-ΔHS [9], the binding result is given as “no binding”.

Broadly, the Kd is the concentration at which binding is half-saturated. A higher Kd goes with a looser complex. As a reminder, the koff is the rate constant with which the complex falls apart. Read a high koff as fast dissociation. In general, kon refers to the second-order rate constant of association. Read a low kon as slower complex formation. By EC50 (read off the curve) is commonly meant the midpoint of the concentration-response curve. Low values mean an effect from little substance, high ones a need for much substance.
